T1: KIF3B C-terminal region (BCT), residues 475 to 747 (Mus musculus, UniProt Q61771 475-747)
T1 construct: KIF3B, Mus musculus, NCBI NP_032470.3, C-terminal region residues 475 to 747 (BCT), without expression tags; residues 580 to 675 are resolved; also called KIF3B tail; source: E. coli BL21 (DE3), coexpressed with the KIF3A tail from pETDuet-1, purified within the reconstituted complex
T1 sequence (looked up): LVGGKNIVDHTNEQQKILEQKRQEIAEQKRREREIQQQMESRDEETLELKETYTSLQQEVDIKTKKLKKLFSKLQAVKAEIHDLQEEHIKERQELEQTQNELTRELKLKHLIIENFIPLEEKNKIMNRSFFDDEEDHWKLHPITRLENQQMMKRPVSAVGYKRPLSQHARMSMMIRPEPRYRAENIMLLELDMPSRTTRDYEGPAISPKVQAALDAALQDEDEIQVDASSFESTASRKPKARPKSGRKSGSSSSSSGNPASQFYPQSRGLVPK

B1: KIF3A C-terminal region (ACT), residues 481 to 701 (domain or fragment, Mus musculus, UniProt P28741 481-701, looked up)
chain: VIVGGVDLLAKAEEQEKLLEESNMELEERRRRAEQLRKELEEKEQERLDIEEKYTSLQEEAQGKTKKLKKVWTMLMAAKSEMADLQQEHQREIEGLLENIRQLSRELRLQMLIIDNFIPQDYQEMIENYVHWNEDIGEWQLKCVAYTGNNMRKQTPVPDKKERDPFEVDLSHVYLAYTEESLRQSLMKLERPRTSKGKARPKMGRRKRSAKPETVIDSLLQ
notes: KIF3A, Mus musculus, NCBI NP_032469.2, C-terminal region residues 481 to 701 (ACT); also called KIF3A tail; source: E. coli BL21 (DE3), coexpressed with the KIF3B tail from pETDuet-1, purified within the reconstituted complex
B2: ARM domain of APC (APCARM), residues 338 to 1010 (domain or fragment, Mus musculus, UniProt Q61315 338-1010, looked up)
chain: SQDSCISMRQSGCLPLLIQLLHGNDKDSVLLGNSRGSKEARARASAALHNIIHSQPDDKRGRREIRVLHLLEQIRAYCETCWEWQEAHEQGMDQDKNPMPAPVEHQICPAVCVLMKLSFDEEHRHAMNELGGLQAIAELLQVDCEMYGLTNDHYSVTLRRYAGMALTNLTFGDVANKATLCSMKGCMRALVAQLKSESEDLQQVIASVLRNLSWRADVNSKKTLREVGSVKALMECALEVKKESTLKSVLSALWNLSAHCTENKADICAVDGALAFLVGTLTYRSQTNTLAIIESGGGILRNVSSLIATNEDHRQILRENNCLQTLLQHLKSHSLTIVSNACGTLWNLSARNPKDQEALWDMGAVSMLKNLIHSKHKMIAMGSAAALRNLMANRPAKYKDANIMSPGSSLPSLHVRKQKALEAELDAQHLSETFDNIDNLSPKASHRSKQRHKQNLYGDYAFDANRHDDSRSDNFNTGNMTVLSPYLNTTVLPSSSSSRGSLDSSRSEKDRSLERERGIGLSAYHPTTENAGTSSKRGLQITTTAAQIAKVMEEVSAIHTSQDDRSSASTTEFHCVADDRSAARRSSASHTHSNTYNFTKSENSNRTCSMPYAKVEYKRSSNDSLNSVTSSDGYGKRGQMKPSVESYSEDDESKFCSYGQYPADLAHKIHSAN
notes: adenomatous polyposis coli (APC), Mus musculus, NCBI AAB59632.1, ARM domain residues 338 to 1010, without expression tags; also called APC ARM domain; source: E. coli BL21 (DE3), purified; E. coli lysate in the pull-down

Columns and labels:
Conditions in all cases: both partners purified
[1] = biological target: B2; test: cryo-EM structure; ABK-APCARM complex, 0.75 mg/ml and 0.375 mg/ml (tilted stage 30° and 40°), single-particle, merged datasets
[2] = biological target: T1, KIF3B C-terminal region (BCT), residues …; test: cryo-EM structure; ABK complex (KIF3A 481-701, KIF3B 475-747, KAP3 1-693), 0.75 mg/ml, single-particle, two maps
[3] = biological target: T2, KIF3A/B/KAP3 cargo-binding domain complex (ABK), wild type (Mus musculus, UniProt P28741 481-701; Q61771 475-747; P70188-1 1-693); test: SPR; Biacore T200; APCARM immobilised on CM5 chip at around 200 RU by amine coupling; kinesin-2 complexes injected at 6.25 to 50 nM, 30 μl/min, 15°C; 20 mM Hepes pH 8.0, 150 mM NaCl, 1 mM dithiothreitol, 0.005% Tween 20; KD from Scatchard plot analysis
T2 construct: KIF3A, Mus musculus, NCBI NP_032469.2, C-terminal region residues 481 to 701 (ACT); KIF3B, Mus musculus, NCBI NP_032470.3, C-terminal region residues 475 to 747 (BCT); KAP3A, Mus musculus, NCBI NP_001292572.1, residues 1 to 693; The His tag is named on the complexes of the SPR experiment; also called ABK (WT); KIF3A/B tail/KAP3 complex; source: E. coli BL21 (DE3), reconstituted and purified (size …)
T2 sequence (P70188 1-693, one chain of several): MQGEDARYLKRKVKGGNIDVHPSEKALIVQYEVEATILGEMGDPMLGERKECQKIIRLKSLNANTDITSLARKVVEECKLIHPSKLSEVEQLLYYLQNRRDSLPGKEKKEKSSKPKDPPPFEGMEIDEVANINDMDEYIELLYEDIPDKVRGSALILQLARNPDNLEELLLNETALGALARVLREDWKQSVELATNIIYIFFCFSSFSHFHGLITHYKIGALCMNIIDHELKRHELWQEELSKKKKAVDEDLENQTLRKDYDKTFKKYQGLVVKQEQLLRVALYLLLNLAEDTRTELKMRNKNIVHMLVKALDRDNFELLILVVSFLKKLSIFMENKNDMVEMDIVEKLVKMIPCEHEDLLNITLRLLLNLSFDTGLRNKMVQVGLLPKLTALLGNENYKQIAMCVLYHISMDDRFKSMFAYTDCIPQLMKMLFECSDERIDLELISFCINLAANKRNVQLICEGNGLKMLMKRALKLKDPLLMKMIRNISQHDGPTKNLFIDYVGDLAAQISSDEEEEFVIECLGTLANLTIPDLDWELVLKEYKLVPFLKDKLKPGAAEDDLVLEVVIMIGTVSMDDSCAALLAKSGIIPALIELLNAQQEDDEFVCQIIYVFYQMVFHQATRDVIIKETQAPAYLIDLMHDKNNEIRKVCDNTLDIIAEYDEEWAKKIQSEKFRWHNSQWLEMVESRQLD

binding result [1]	binding result [2]	Kd [3]	Binder
binds	binds	–	B1
–	–	34.7 ± 0.6 nM	B2

Source: article PMC12551710, “The hook-like adaptor and cargo-binding (HAC) domain in the kinesin-2 tail enables adaptor assembly and cargo recognition” (Science Advances, 2025)
